Results on three molecules are retold here after paper PMC4161438 (PLoS Pathogens, 2014).

Where no end group is shown, it is not given here.

One experiment concerns inflammation. To be noted: ref [14]; cited from earlier work. The text has this:
(§1) In fact, platelets […] ...

The target in another experiment is T1, elastase (Homo sapiens, UniProt P08246).
T1 construct: purchased Elastin Products Company, Inc. (Owensville, MO, USA)
T1 sequence (P08246 30-267): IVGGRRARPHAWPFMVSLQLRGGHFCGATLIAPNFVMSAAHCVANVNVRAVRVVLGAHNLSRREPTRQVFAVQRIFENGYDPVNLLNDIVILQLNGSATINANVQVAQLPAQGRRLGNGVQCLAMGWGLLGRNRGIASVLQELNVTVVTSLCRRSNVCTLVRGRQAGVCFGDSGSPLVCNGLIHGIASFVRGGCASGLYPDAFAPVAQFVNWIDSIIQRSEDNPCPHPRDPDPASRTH
To be noted: pathologic conditions associated with neutrophil dysfunction; ref [22]; cited from earlier work. An excerpt: Neutrophils also release granule contents containing enzymes such as elastase, proteinase-3, and cathepsin G. Elastase, a particularly inflammatory enzyme, interferes with thrombomodulin function, and cleaves TF pathway inhibitor (TFPI), the physiological inhibitor of the extrinsic pathway. […] Elastase also induces proteinase-activated receptor activation, contributes to cytokine production and processing, inactivates metalloprotease inhibitors, deg ...

For the next experiment, the system named is NETs formation. On the set-up: method as in 2 sources, one per row (each row's own in cited_ref): ref [38], [55] = [38]; PMID 20974816; doi:10.1083/jcb.201006052; 38 Papayannopoulos V , Metzler KD , Hakkim A , Zychlinsky A ( 2010 ) Neutrophil elastase and myeloperoxidase regulate the formation of neutrophil extracellular traps . J Cell Biol 191 : 677 – 691 . 20 || [55]; PMID 23635526; doi:10.1159/000348676; 55 Braian C , Hogea V , Stendahl O ( 2013 ) Mycobacterium tuberculosis- induced neutrophil extracellular traps activate human macrophages . J Innate Immun 5 : 591 – 602 . 23635526 10.1159/000348676 PM ||| ref [56] = [56]; PMID 23002442; doi:10.4049/jimmunol.1201167; 56 Farley K , Stolley JM , Zhao P , Cooley J , Remold-O'Donnell E ( 2012 ) A serpinB1 regulatory mechanism is essential for restricting neutrophil extracellular trap generation . J Immunol 189 : 4574. Particulars: exogenously added, internalized, translocates into nucleus; ref [56]; cited from earlier work.

Another experiment relates to baboons. Particulars: NETs-related thrombosis, DNase treatment; ref [19]; cited from earlier work.
Description: as §1

Experiment [1] concerns neutrophils. The experiment can be described thus: Neutrophil-induced coagulation. It counts as cell-based, human. To be noted: DNAse (Dornase alfa) 4 µg/ml, 1 h, then PMA 50 nM, 3 h. How it is done: A) Platelet aggregation. Washed human platelets were stimulated with elastase only (500 nM, left panel), or cathepsin G only (110 nM, middle tracing), or elastase followed by cathepsin G (right tracing). […] Aggregation response was monitored by turbidimetry using a Lumi-Aggregometer. D) TFPI cleavage. […] After 2 h, reactions were stopped by addition of LDS loading buffer (under reducing conditions, 10 mM DTT), boiled for 5 min, and loaded in 4–12% Nu-PAGE gel. Gels were Coomassie Blue-stained. E) Neutrophil-induced coagulation. […] Fifty µl of this suspension was added to 50 µl of plasma, and reactions were started by addition of CaCl2 (12.5 mM, final concentration)(*, p<0.05).
Whole blood (5 mL collected in 0.5 mL of 3.2% sodium citrate) from healthy donors was diluted in an equal volume of PBS, layered over 5 mL of HISTOPAQUE solution (10771, Sigma Aldrich), and centrifuged for 40 min, at 400×g, at room temperature. The lower interphase having granulocytes was collected and transferred to a 15-ml Falcon tube and resuspended in 10 ml ammonium chloride lysis buffer (1.7 M NH4Cl, […], 1 mM EDTA) to lyse red blood cells. Lysis was carried out twice followed by centrifugation for 10 min at 400×g. Neutrophils were washed with PBS and resuspended at 1×10^6 cells/mL in high glucose DMEM (GIBCO). Neutrophils were kept on ice. […]

Experiment [2] relates to neutrophils. The experiment can be described thus: NETs formation. It counts as cell-based, human. To be noted: DNAse (Dornase alfa) 4 µg/ml; not shown. On the procedure: Left panel, non-activated neutrophil (no PMA). Formation of NETs was visualized under confocal microscopy, using antibody against citrullinated histone. Representative experiment is shown (4 different donors). B) Quantification. Performed as described in Methods.
Whole blood (5 mL collected in 0.5 mL of 3.2% sodium citrate) from healthy donors was diluted in an equal volume of PBS, layered over 5 mL of HISTOPAQUE solution (10771, Sigma Aldrich), and centrifuged for 40 min, at 400×g, at room temperature. The lower interphase having granulocytes was collected and transferred to a 15-ml Falcon tube and resuspended in 10 ml ammonium chloride lysis buffer (1.7 M NH4Cl, […], 1 mM EDTA) to lyse red blood cells. Lysis was carried out twice followed by centrifugation for 10 min at 400×g. […]
Cells were fixed with 500 µl of 4% paraformaldehyde (final concentrations) for 10 min, washed 3 times with PBS and incubated for 10 min with blocking solution (PBS, 10%FBS, 5 mg/ml BSA). […] NETs were quantified according to Farley et al. Briefly, NETs were identified on digitalized images as Hoechst-positive fibrils emanating from cells with an overall length at least twice as long as the cell diameter and were counted for at least two fields of view per variable. Results were expressed as the percentage of NETs/total number of granulocytes.

As to “Elafin: potent elastase inhibitor purified from bronchial secretions (AQEPVKGPVSTKPGSCPIILIRCAMLNPPNRCLKDTDCPGIKKCCEGSCGMACFVPQ; ends and bridges not checked; cysteine pairing not given here; UniProt P19957 61-117, looked up)”, the “inflammation in several in vivo models” value in the experiment with inflammation is “blocks inflammation”. Besides, the clinical trial results with elastase is reported as “mixed results”.

B1: serpin B1: exogenously added elastase inhibitor (protein, UniProt P30740 1-379, looked up)
Leukocyte elastase inhibitor: MEQLSSANTRFALDLFLALSENNPAGNIFISPFSISSAMAMVFLGTRGNTAAQLSKTFHFNTVEEVHSRFQSLNADINKRGASYILKLANRLYGEKTYNFLPEFLVSTQKTYGADLASVDFQHASEDARKTINQWVKGQTEGKIPELLASGMVDNMTKLVLVNAIYFKGNWKDKFMKEATTNAPFRLNKKDRKTVKMMYQKKKFAYGYIEDLKCRVLELPYQGEELSMVILLPDDIEDESTGLKKIEEQLTLEKLHEWTKPENLDFIEVNVSLPRFKLEESYTLNSDLARLGVQDLFNSSKADLSGMSGARDIFISKIVHKSFVEVNEEGTEAAAATAGIATFCMLMPEENFTADHPFLFFIRHNSSGSILFLGRFSSP
With B1, the NETs formation entry with NETs formation is “inhibits NETs formation”.

B2: DNAse: DNAse (Dornase alfa, Genentech Inc.) (protein, UniProt P24855 23-282, looked up)
Deoxyribonuclease-1: LKIAAFNIQTFGETKMSNATLVSYIVQILSRYDIALVQEVRDSHLTAVGKLLDNLNQDAPDTYHYVVSEPLGRNSYKERYLFVYRPDQVSAVDSYYYDDGCEPCGNDTFNREPAIVRFFSRFTEVREFAIVPLHAAPGDAVAEIDALYDVYLDVQEKWGLEDVMLMGDFNAGCSYVRPSQWSSIRLWTSPTFQWLIPDSADTTATPTHCAYDRIVVAGMLLRGAVVPDSALPFNFQAAYGLSDQLAQAISDHYPVEVMLK
For B2, in the experiment on baboons, the thrombosis in baboons entry is listed as “prevented”. In addition, the “pro-coagulant activity of PMA-activated neutrophils” value in the experiment with neutrophils [1] is on record as “reversed”. For the same molecule, the NETs-associated fluorescence signal result in the experiment on neutrophils [2] is reported as “completely abrogated”.
